Experimental data from the supplement of paper PMC7125110.
± gives the standard error. For some assays here: Variants at the floor of the assay were thinned out.

B1: glmS ribozyme (parent)
chain: AUAAAAGCGCCAGAACUACAGAAAUGUAGUUGACGAGGAGGAGGUUUAUCGAAUUUUCGGCGGAUGCCUCCAAA

What was measured:
Settings in all cases: with glucosamine-6-phosphate
glucosamine-6-phosphate [1] = variants of: B1; test: kcat; higher = faster cleavage; RNA array
Outline: (§1)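 Barcoded ribozyme variants were transcribed in situ on sequenced MiSeq chips by E. coli RNA polymerase. At 37 °C, a hybridised Cy3 probe tracked them while glucosamine-6-phosphate (40 μM to 10 mM) in HEPES/KCl/Mg(OAc)2 buffer flowed in and tiles were imaged over ~14 h. Per-tile medians of signals normalised to baseline and to non-cleaving reference variants were fit to one- or two-exponential decays, giving kobs. kcat and KM came from weighted Michaelis–Menten fits across concentrations.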

glucosamine-6-phosphate [2] = variants of: B1; test: KM; higher = weaker cofactor use; RNA array
Outline: as §1

glucosamine-6-phosphate [3] = variants of: B1; test: self-cleavage kobs at 40 uM GlcN6P; higher = faster cleavage; RNA array
Outline: as §1

glucosamine-6-phosphate [4] = variants of: B1; test: self-cleavage kobs at 160 uM GlcN6P; higher = faster cleavage; RNA array
Outline: as §1

glucosamine-6-phosphate [5] = variants of: B1; test: self-cleavage kobs at 640 uM GlcN6P; higher = faster cleavage; RNA array
Outline: as §1

glucosamine-6-phosphate [6] = variants of: B1; test: self-cleavage kobs at 2500 uM GlcN6P; higher = faster cleavage; RNA array
Outline: as §1

glucosamine-6-phosphate [7] = variants of: B1; test: self-cleavage kobs at 10000 uM GlcN6P; higher = faster cleavage; RNA array
Outline: as §1

Variant	kcat (glucosamine-6-phosphate [1]) [s⁻¹]	KM (glucosamine-6-phosphate [2]) [µM]	self-cleavage kobs at 40 uM GlcN6P (glucosamine-6-phosphate [3]) [s⁻¹]	self-cleavage kobs at 160 uM GlcN6P (glucosamine-6-phosphate [4]) [s⁻¹]	self-cleavage kobs at 640 uM GlcN6P (glucosamine-6-phosphate [5]) [s⁻¹]	self-cleavage kobs at 2500 uM GlcN6P (glucosamine-6-phosphate [6]) [s⁻¹]	self-cleavage kobs at 10000 uM GlcN6P (glucosamine-6-phosphate [7]) [s⁻¹]
A15G G40U	0.00552 ± 0.00099	1330 ± 360	0.000202 ± 2.1e-05	0.000466 ± 6.2e-05	0.00181 ± 0.0002	0.00448 ± 0.00068	0.00473 ± 0.00045
A15G G40A	0.0072 ± 0.0015	1290 ± 400	0.000316 ± 8.2e-05	0.000754 ± 0.00016	0.00207 ± 0.00049	0.00475 ± 0.00096	0.00713 ± 0.002
A15G U31A	0.0107 ± 0.0009	2220 ± 260	0.000199 ± 4.4e-05	0.000722 ± 0.00015	0.00236 ± 0.00063	0.00493 ± 0.0014	0.00926 ± 0.0017
A15G U31G	0.00736 ± 0.0015	4370 ± 1200	7.87e-05 ± 9.4e-06	0.000202 ± 3.2e-05	0.0011 ± 0.00015	0.00262 ± 0.00033	0.00513 ± 0.00051
A15G G59A	0.000151 ± 1.1e-05	3440 ± 750				6.85e-05 ± 2.3e-05	0.000112 ± 1.5e-05
A15C A52G	0.000755 ± 0.00022	7750 ± 3200			6.9e-05 ± 1.1e-05	0.000164 ± 2e-05	0.000449 ± 5.5e-05
A15U A42G	0.00684 ± 0.0019	1500 ± 570	0.000222 ± 3.2e-05	0.000542 ± 0.00018	0.00165 ± 0.00033	0.0039 ± 0.0016	0.00687 ± 0.0013
A15U A42U	4.62e-05 ± 4.1e-06	1830 ± 680					3.96e-05 ± 1e-05
A15C C16A C70U C71U	2.86e-05 ± 3.8e-06					2.89e-05 ± 1.3e-05	
A15G U69A	0.000201 ± 4.3e-05		6.42e-05 ± 9.6e-06	0.000145 ± 1.7e-05	0.000137 ± 1.8e-05	0.000264 ± 5.2e-05	0.000312 ± 4.6e-05
A15U C67G	0.000167 ± 1.9e-06	1030 ± 37		2.34e-05 ± 1.1e-05	6.43e-05 ± 9.7e-06	0.000115 ± 1.8e-05	0.000153 ± 1.2e-05
A15U C67U	0.00194 ± 0.00074		5.32e-05 ± 6.3e-06	0.000161 ± 1.7e-05	0.000409 ± 3.4e-05	0.00189 ± 0.00029	0.00167 ± 0.00023
A15U U31G	0.00129 ± 0.00024	2960 ± 980	1.82e-05 ± 8.3e-06	0.000104 ± 2.2e-05	0.000193 ± 3.7e-05	0.000572 ± 9.4e-05	0.00102 ± 0.00012
A15U U31C	0.00128 ± 0.0001	2710 ± 340	1.67e-05 ± 5.8e-06	7.32e-05 ± 7.2e-06	0.000233 ± 1.9e-05	0.000703 ± 6.9e-05	0.000981 ± 7.1e-05
A15G A39C	0.0119 ± 0.0054		0.000149 ± 1.5e-05	0.000242 ± 6.6e-05	0.0011 ± 0.00014	0.00446 ± 0.00072	0.00811 ± 0.00088
A15G A39U	0.0505 ± 0.019	4740 ± 2300	0.0006 ± 7.9e-05	0.00146 ± 0.00026	0.00551 ± 0.001	0.0136 ± 0.0025	0.0387 ± 0.0051
A14U U31G	0.00512 ± 0.0017	2230 ± 1100	0.000142 ± 2.1e-05	0.000241 ± 5.5e-05	0.00115 ± 0.0003	0.00273 ± 0.0005	0.00424 ± 0.0007
A15G C34G	< 1e-05		< 1e-05		< 1e-05		
A15G G60U	< 1e-05		< 1e-05	< 1e-05	< 1e-05		
A15C G32C A53C	2.15e-05 ± 1.1e-06						
A15U G32U C67U	0.000433 ± 0.00015				3.29e-05 ± 1.4e-05	6.84e-05 ± 1.9e-05	0.000204 ± 3.8e-05
A14U G29C U46G C70A	2.85e-05 ± 1.1e-05						
A15U U47C	0.00038 ± 5e-05	862 ± 310		5.24e-05 ± 1.3e-05	0.00024 ± 7.3e-05	0.00036 ± 5e-05	0.000325 ± 3.4e-05
A15U U47G	0.000703 ± 0.00012	1160 ± 360	5.1e-05 ± 1.1e-05	8.04e-05 ± 1.3e-05	0.000238 ± 2.7e-05	0.000473 ± 5.8e-05	0.000653 ± 7.7e-05
C16A A36C C71A	< 1e-05						< 1e-05
C16A C67G	4.14e-05 ± 5.2e-06				3.73e-05 ± 1.5e-05	2.82e-05 ± 1.1e-05	4.37e-05 ± 8e-06
A15U U56C	0.00101 ± 4.2e-05	2320 ± 150		6.26e-05 ± 9.4e-06	0.000221 ± 2.7e-05	0.000551 ± 6.9e-05	0.0008 ± 9.1e-05
A15G A42G	0.132 ± 0.031	3780 ± 970	0.00132 ± 0.00047	0.00525 ± 0.0011	0.024 ± 0.0099		
A15U G41U	0.000143 ± 2.5e-05			4.82e-05 ± 1.4e-05	0.000255 ± 5.3e-05	0.000115 ± 1.5e-05	0.000149 ± 1.7e-05
